{"source": "patent US20140335016A1", "target": "amyloid-β 1-42 fibers (fAβ42) (human) (UniProt P05067)", "sequence (P05067 672-713 limits assumed)": "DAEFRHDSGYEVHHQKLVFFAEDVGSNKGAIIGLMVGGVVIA", "test": "cell-based or functional assay", "data": [{"substance": "M13 filamentous bacteriophage, Construct 2 (wild type M13 isolate, GenBank JX412914.1)", "values": [{"measurement": "filter trap assay, concentration that reduces aggregates to a similar level", "value": 1.7, "unit": "nM"}]}]}
